Experimental data from the DeepSol protein solubility set.

test: soluble on expression in E. coli; label from the status in PepcDB or PDB records

Sequence	soluble on expression in E. coli
EHDNTSYICKKIDEDEYVLSARLEIEKVNEMFGLDLPESDDYLTVGGLILNQYQSFPKLHELVRVGRYQFKIIKVTATKIELVRLKVME	not soluble
SSEDLAKQLASYKAQLQQVEAALSGNGENEDLLKLKKDLQEVIELTKDLLSTQPSETLASSDSFASTQPTHSWKVGDKCMAVWSEDGQCYEAEIEEIDEENGTAAITFAGYGNAEVTPLLNLKPVEEGRKAKEDSGNKPMSKKEMIAQQREYKKKKALKKAQRIKELEQEREDQKVKWQQFNNRAYSKNKKGQVKRSIFASPESVTGKVGVGTCGIADKPMTQYQDTSKYNVRHLMPQ	soluble
MSDPVADFLAREQNLFADFDGAPPAAAAANPDAPEADAPAPALDDDFGDLQIAGDEPPPVVHPTDSGVDLDGLVDDNAAAPAIVVPAVEPMVNGNHSASSGGSKGPSPILSTVPRIEAEKIRLWKAQQEQLLSKKDEAEEKKKIELRANAKKELEEWYKQREKTLQLSHDENLKNEKSNQELFAKQQDGDAQWETVNKLVDQQKSKSGKDLSRLKTLLAGLKHAGK	not soluble
MSLSILFKNAALLDPLQADLMDAHHVLVEDNLIKEVSDRPLQVTADRTIDLRGKTLMPGLIDLHVHAVAVELNLAQQVHMPNVLVTLRSTLLLRGMLRRGFTTVRDAGGAGHALKQAIETGLTDGPRLFVSGRALSQTGGHGDMRARSDYLASDAPCPCCVRVGALARVADGVDGVRRAAREELQMGADQIKIMASGGVASPTDPVGAFGYSEDEIRAIVEEARGRQTYVLAHAYTAAAIARAVRCGVRTIEHGNLVDEPTARLMAEKGAYVVPTLVTYEALANEGAQYGLPPESVAKIADVRDAGLRSLAIYRDAGVKMGFGSDLLGPSQRLQSDEFRIRAEILGPRAVIASATVIGAEVLGMEGKLGRIAPEALADLLVVDGNPLRDVACLLGQGEHIPLVLKAGKVQFDRLNAEGHHHHHH	not soluble
MAIKGLDQAIDNLSRVRKNAIPAASAMTINRVATTAINQSSSQVARETKVRRKLVKERSRLKRATVRNPNAKIIVNRGDLPVIKLGIRMLGRRPNSILKAGQHRYQRAFIQRLKNGRWHVMQRVAGKNRYPIDVVKIPMAAPLKQAFDENVDRIRCERLPGELASALKQQLRIAIKR	not soluble
MDSLKEAEIREVFREFDKNGDGRITRQELEVALLQLGEKASNSKIETMIEQADLDGNGCIDIDEFLNVLRRQICDPKEERELRDVFNVFDKNGDGVISIDDLIFVMCQLGEKLTETEAKEMIKQGDLDHDGMIDFQEFVNIIKGQ	soluble
MGSDKIHHHHHHMGTRKGDAMEKFDTVVIGAGQAGIATSEHLRALGIDHVVLERGRIAERWRSERWDSLVANGPAWHDRFPGMAFSCDGDVFADKECVARYFEDYAKMIDAPVRTGVTVERARPHADRAGFLVETSQGTFDARNLICATGPFQKPAIPPIIPETSDLTQMHSTAYRNPDALPDGAVLVIGGGSSGSQIAAELHDAGRKVFFSIGPHDRPPRRYRGRDNVWWLGVLGIWNMDTPAPGTEHVTIAVSGAHGGKTVDFRLLAERGITLLGMSSGYEDGVLHIANDLKTNLDAGDANMLSLLEAADAYIKRTGIDLPPEPEAWVIPDDPDCVSNPVRALDLSENNIGTVIWATGFQFDYDWLEADTLDDRGSPIHQRGISAVPGLYFVGLPWQSRRGSSFIWGVWHDAKFIADQIAIQENYLAYRPTASS	not soluble
MTIEFINCAGCKAKIAEEDVEKNKVVFFLNRMWHRDHIQCIFCKLQISDNRYFRSSIDPMKPSCYACHIQTNHPSCTGCSLPVIERGLVAFNRLFHIDCFRCAICNKTIPQRKGFYERDMMFYDDVCYMLHIKDVL	not soluble
MVAAAVVGTAAVGTKAATDPRSVGTQVDDGTLEVRVNSALSKDEQIKKEARINVTAYQGKVLLVGQSPNAELSARAKQIAMGVDGANEVYNEIRQGQPIGLGEASNDTWITTKVRSQLLTSDLVKSSNVKVTTENGEVFLMGLVTEREAKAAADIASRVSGVKRVTTAFTFIKLEHHHHHH	not soluble
PQRSQRESRHLFIREAKKLCQKEFKRWFILAADVNPLMKYFKDRELPIPTLYLMGDRDYMFIQPVKEMVAAHKLSILREIPNCGHVCNVERPEDFNQHSIEFIKQQSIVA	not soluble
